# Data taken from patent US20230121248A1.
# What was measured:
# Assay in all cases: cell-based or functional assay
# [1] = molecular target: native JAM-A on CAL27 cells (UniProt Q9Y624)
# [2] = molecular target: mock CAR-T cells (CAR-T not able to recognize CD19)
# [3] = molecular target: anti-CD19 chimeric antigen receptor on anti-CD19 CAR-T cells
# UniProt Q9Y624, sequence (Q9Y624 28-299 limits assumed): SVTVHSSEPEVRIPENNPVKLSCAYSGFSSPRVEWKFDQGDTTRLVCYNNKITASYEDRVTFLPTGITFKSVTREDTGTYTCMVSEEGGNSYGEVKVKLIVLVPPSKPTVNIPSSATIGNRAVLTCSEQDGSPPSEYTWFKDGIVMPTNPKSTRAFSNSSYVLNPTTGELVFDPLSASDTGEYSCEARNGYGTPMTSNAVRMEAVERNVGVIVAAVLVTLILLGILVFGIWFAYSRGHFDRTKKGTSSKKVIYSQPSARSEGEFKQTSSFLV
"proliferation of CAL27 cells (ATPlite, ratio to untreated control), 1 uM soluble JAM-A [1]",Substance,"proliferation (ATP fold of control) of A549 cells 72 h after the mock CAR-T killing assay, 1 uM CM19XA [2]","proliferation (ATP fold of control) of CAL27 cells 72 h after the mock CAR-T killing assay, 1 uM CM19XA [2]","proliferation (ATP fold of control) of A549 cells 72 h after the anti-CD19 CAR-T killing assay, 1 uM CM19XA [3]","proliferation (ATP fold of control) of CAL27 cells 72 h after the anti-CD19 CAR-T killing assay, 1 uM CM19XA [3]"
1.24,soluble JAM-A protein (extracellular domain of JAM-A fused with MBP) (from UniProt Q9Y624 28-238),,,,
,CM19XA (CD19-GS linker-JAM-A-pHLIP fusion protein with N-terminal 6xHis tag),1.03 fold,1.01 fold,0.74 fold,0.72 fold
